Experimental data from paper PMC11417369, “DNA sequence and chromatin differentiate sequence-specific transcription factor binding in the human malaria parasite Plasmodium falciparum”.

Columns and labels:
[1] = molecular target: AP2-I D3 (Plasmodium falciparum, UniProt Q8IJW6 910-1027); test: gcPBM; about 25 ug protein; PBS, 1% milk, 0.2 mg/ml BSA, salmon testes DNA, 0.03% Triton X-100; conditions: tags: N-terminal GST (pGEX-4T-1), kept; label: surface-attached array probe
[2] = molecular target: T1, HDP1 homeodomain-like (Plasmodium falciparum, UniProt Q8IKH4 2990-3078); test: as above; conditions: tags: N-terminal GST (pGEX-4T-1), kept; chain copies: 2; label: surface-attached array probe
T1 sequence: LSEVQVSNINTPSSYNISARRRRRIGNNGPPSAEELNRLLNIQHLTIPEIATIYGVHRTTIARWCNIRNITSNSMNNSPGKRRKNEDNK

Binder | binding signal [1] | binding signal [2]
GTGCAC_site9541 (dsDNA) DNA 1: ATGAGTAACATATTTGTGCACATATGGTTATTTTTA DNA 2: TAAAAATAACCATATGTGCACAAATATGTTACTCAT | 10.4 ln median PBM intensity, better of two orientations | 11.1 ln median PBM intensity, better of two orientations
GTGCAC_site9679 (dsDNA) DNA 1: TTTCTTTAATATATAGTGCATGTAAATTTTACAATA DNA 2: TATTGTAAAATTTACATGCACTATATATTAAAGAAA | 9.43 ln median PBM intensity, better of two orientations | 8.12 ln median PBM intensity, better of two orientations
GTGCAC_site9967 (dsDNA) DNA 1: ACATCGATTTATATTCTGCACTGAAGAAACTACAAC DNA 2: GTTGTAGTTTCTTCAGTGCAGAATATAAATCGATGT | 9.3 ln median PBM intensity, better of two orientations | 7.69 ln median PBM intensity, better of two orientations
GTGCAC_site10685 (dsDNA) DNA 1: TTATATTTCACAAATGTGCACAGATACATATATATA DNA 2: TATATATATGTATCTGTGCACATTTGTGAAATATAA | 10.1 ln median PBM intensity, better of two orientations | 11.1 ln median PBM intensity, better of two orientations
GTGCAC_site9772 (dsDNA) DNA 1: TATATTATCAAAATGGTGCAATAATTTCTATATTAT DNA 2: ATAATATAGAAATTATTGCACCATTTTGATAATATA | 12 ln median PBM intensity, better of two orientations | 10 ln median PBM intensity, better of two orientations
GTGCAC_site10741 (dsDNA) DNA 1: AAACAAAACAACTAAGTGCATAAAAATAAAATAAAT DNA 2: ATTTATTTTATTTTTATGCACTTAGTTGTTTTGTTT | 10.7 ln median PBM intensity, better of two orientations | 8.67 ln median PBM intensity, better of two orientations
GTGCAC_site9920 (dsDNA) DNA 1: ATAATTATATGATGAGTGCACAATAAAAATATCGTT DNA 2: AACGATATTTTTATTGTGCACTCATCATATAATTAT | 11.2 ln median PBM intensity, better of two orientations | 9.38 ln median PBM intensity, better of two orientations
GTGCAC_site9478 (dsDNA) DNA 1: ATATTATATTGGATGTTGCACTTAACAAAAGGATAT DNA 2: ATATCCTTTTGTTAAGTGCAACATCCAATATAATAT | 9.38 ln median PBM intensity, better of two orientations | 8.41 ln median PBM intensity, better of two orientations
GTGCAC_site9798 (dsDNA) DNA 1: ATCATATGTATGGTGGTGCATTATGCATGAATTTTA DNA 2: TAAAATTCATGCATAATGCACCACCATACATATGAT | 12 ln median PBM intensity, better of two orientations | 10.4 ln median PBM intensity, better of two orientations
GTGCAC_site10780 (dsDNA) DNA 1: TACAGTTCAATGAAGGTGCAATTAATATATAAAATA DNA 2: TATTTTATATATTAATTGCACCTTCATTGAACTGTA | 11.1 ln median PBM intensity, better of two orientations | 9.1 ln median PBM intensity, better of two orientations
GTGCAC_site9965 (dsDNA) DNA 1: AAGAACAAATATGAGGTGCAACACAATATATTATTA DNA 2: TAATAATATATTGTGTTGCACCTCATATTTGTTCTT | 9.55 ln median PBM intensity, better of two orientations | 10.2 ln median PBM intensity, better of two orientations
GTGCAC_site9796 (dsDNA) DNA 1: ATATATATATATATAGTGCAAATAAAAAATAGACAA DNA 2: TTGTCTATTTTTTATTTGCACTATATATATATATAT | 11.2 ln median PBM intensity, better of two orientations | 10 ln median PBM intensity, better of two orientations
GTGCAC_site10491 (dsDNA) DNA 1: TAGTGATATAATTATGTGCACTTAATACAGGTCGAT DNA 2: ATCGACCTGTATTAAGTGCACATAATTATATCACTA | 11.1 ln median PBM intensity, better of two orientations | 11.1 ln median PBM intensity, better of two orientations
GTGCAC_site9829 (dsDNA) DNA 1: GAACGAAATAAGTGTGTGCACATGTAACCACAAATC DNA 2: GATTTGTGGTTACATGTGCACACACTTATTTCGTTC | 9.08 ln median PBM intensity, better of two orientations | 9.93 ln median PBM intensity, better of two orientations
GTGCAC_site9629 (dsDNA) DNA 1: ATATCAAATAATTTAGTGCACTTTTTTTTTTCTTTT DNA 2: AAAAGAAAAAAAAAAGTGCACTAAATTATTTGATAT | 12 ln median PBM intensity, better of two orientations | 10.8 ln median PBM intensity, better of two orientations
GTGCAC_site9591 (dsDNA) DNA 1: ACATATTATATATGTGTGCACATATATATATATTTA DNA 2: TAAATATATATATATGTGCACACATATATAATATGT | 9.12 ln median PBM intensity, better of two orientations | 9.98 ln median PBM intensity, better of two orientations
